{
  "source": "paper PMC11283454",
  "about": "(Nature Communications, 2024)",
  "origin": "cited, not measured here",
  "data": [
    {"molecule": "scATE1: Saccharomyces cerevisiae ATE1 (protein, UniProt P16639 1-503, looked up) Arginyl-tRNA--protein …: MSDRFVIWAPSMHNEPAAKCGYCHGNKGGNMDQLFALDSWAHRYMNKMDVVKIENCTIGSFVEHMDVATYDRMCNMGFRRSGKFLYKVDPLRNCCRLYTIRTAPQELNMTKELKKCISRFATRITSEDYCPAAVASSDFVGKIVNAEMNSKTFYTRFEPALYSEEKYHLFVKYQEKVHQDYNNSPKSFKRFLCDTPFGPEAVLGTQESWEQLNNWQRMKPGEKLKHMGPVHECYYYEGKLIAITVSDILPSGISSVYFIWDPDYSKWSLGKLSALRDLAIIQRTNLQYYYLGYYIEDCPKMNYKANYGAEVLDVCHSKYIPLKPIQDMISRGKLFVIGEEETKVTKELYLVDSETGRGEGFPTDNVVKYKNIAEEIYGVGGCAFKSANESALELKELYGIPYEEEDLDTIYHLKEHNGHAPNGIPNVVPGLLPLWELLDIMQSGKITDLEGRLFLFEIETEGIRPLINFYSEPPNVKKRICDVIRLFGFETCMKAVILYSEQM", "values": [
      {"measurement": "Tm of scATE1", "result": "~ 46 °C"}
    ]}
  ]
}
